The results in this text go back to patent publication EP4714974A1 (Shanghai Qilu Pharmaceutical Research and Development …, dated 2026).

Experiment [1] concerns the target T1, human GPRC5D (human, UniProt Q9NZD1 1-345).
T1 construct: whole, on cells; also called hGPRC5D; G-protein coupled receptor family C group 5 member D
In words: flow cytometry on NCI-H929 cells.

For experiment [2], the target named is T1, human GPRC5D. In words: flow cytometry on human GPRC5D-CHOK1 cells. (In general: A flow cytometer gives signals particle by particle.)
Experiment [3] concerns the target T1, human GPRC5D. Briefly: cell-based or functional assay.
For experiment [4], the target named is T2, human CD3 on Jurkat cells (human, UniProt P07766 23-207).
T2 construct: whole, on cells; CD3 complex on cells; also called hCD3; Jurkat cell strain
In words: flow cytometry (FACS) on Jurkat cells expressing hCD3.

Experiment [5] has as its target T1, human GPRC5D. In words: flow cytometry (FACS) on NCI-H929 cells expressing hGPRC5D.
The target in experiment [6] is T1, human GPRC5D. In words: flow cytometry (FACS) on RPMI8226 cells expressing hGPRC5D.
In experiment [7] the target is T3, human CD3 (purchased from Acro, Cat. No. CDD-H52W1) (human, UniProt P07766 23-126).
T3 construct: Bought reagent; also called human CD3 protein
Briefly: SPR (Biacore 8K), CD3 immobilised on CM5 chip, bispecific antibody as analyte, 1:1 Langmuir fit. Background: In SPR one partner is held on a chip, and binding of the other changes the refractive index at the surface.

In experiment [8] the target is T4, cynomolgus monkey CD3 (purchased from Acro, Cat. No. CDD-C52W4) (cynomolgus monkey, UniProt Q95LI5 22-117).
T4 construct: Bought reagent
T4 sequence (looked up): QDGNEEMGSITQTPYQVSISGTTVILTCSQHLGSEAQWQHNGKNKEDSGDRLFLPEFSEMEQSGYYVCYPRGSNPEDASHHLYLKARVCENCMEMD
The experiment is described as above.

The target of a further experiment is T5, human GPRC5A (human, UniProt Q8NFJ5 1-357).
T5 construct: whole, on cells; also called human GPRC5A-CHOK1 cell line
In words: flow cytometry on human GPRC5A-CHOK1 cells.

Experiment [9] addresses T1, human GPRC5D. In words: flow cytometry on human GPRC5D-CHOK1 cells. The source holds these as a separate data set.
In another experiment the target is T6, cynomolgus monkey GPRC5D (cynomolgus monkey).
T6 chain: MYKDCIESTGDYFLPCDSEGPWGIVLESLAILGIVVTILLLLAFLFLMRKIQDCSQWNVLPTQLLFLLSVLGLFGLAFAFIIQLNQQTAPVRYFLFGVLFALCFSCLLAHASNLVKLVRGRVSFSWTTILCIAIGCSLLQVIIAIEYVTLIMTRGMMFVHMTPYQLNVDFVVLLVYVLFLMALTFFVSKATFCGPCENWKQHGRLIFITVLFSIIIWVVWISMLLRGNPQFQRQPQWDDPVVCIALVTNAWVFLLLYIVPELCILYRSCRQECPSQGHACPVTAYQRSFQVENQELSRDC
In words: flow cytometry on cynomolgus monkey GPRC5D-CHOK1 cells.

T3 sequence (P07766 23-126): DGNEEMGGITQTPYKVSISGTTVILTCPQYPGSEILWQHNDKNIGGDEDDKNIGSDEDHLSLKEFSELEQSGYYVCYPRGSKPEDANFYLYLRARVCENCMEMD
T1 sequence (Q9NZD1 whole entry): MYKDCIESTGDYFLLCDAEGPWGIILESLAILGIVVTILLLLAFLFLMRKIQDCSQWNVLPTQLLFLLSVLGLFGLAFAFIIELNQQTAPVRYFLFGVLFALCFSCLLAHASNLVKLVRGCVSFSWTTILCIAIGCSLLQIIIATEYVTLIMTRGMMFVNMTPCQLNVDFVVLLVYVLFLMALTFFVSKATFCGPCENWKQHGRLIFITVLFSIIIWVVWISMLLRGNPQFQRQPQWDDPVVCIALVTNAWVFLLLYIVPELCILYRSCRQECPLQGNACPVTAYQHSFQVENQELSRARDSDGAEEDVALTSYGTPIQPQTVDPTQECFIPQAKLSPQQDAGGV
T2 sequence (P07766 23-207): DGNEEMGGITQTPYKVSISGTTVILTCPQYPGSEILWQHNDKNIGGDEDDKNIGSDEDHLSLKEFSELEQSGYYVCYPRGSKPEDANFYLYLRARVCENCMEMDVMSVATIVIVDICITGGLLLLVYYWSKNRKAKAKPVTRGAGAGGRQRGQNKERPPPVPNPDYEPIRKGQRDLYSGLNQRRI
T5 sequence (Q8NFJ5 whole entry): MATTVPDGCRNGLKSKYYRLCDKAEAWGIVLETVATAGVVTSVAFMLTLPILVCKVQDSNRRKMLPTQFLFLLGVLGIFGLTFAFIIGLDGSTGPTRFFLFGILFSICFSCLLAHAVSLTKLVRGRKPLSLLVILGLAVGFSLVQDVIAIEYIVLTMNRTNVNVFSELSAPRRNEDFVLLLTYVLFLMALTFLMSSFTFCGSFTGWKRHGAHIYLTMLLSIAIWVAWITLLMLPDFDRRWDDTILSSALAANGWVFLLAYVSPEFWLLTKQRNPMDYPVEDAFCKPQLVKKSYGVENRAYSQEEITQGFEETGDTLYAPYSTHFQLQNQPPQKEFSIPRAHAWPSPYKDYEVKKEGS

B1: 18CH16H2L1 (humanized mouse hybridoma-derived anti-GPRC5D antibody) (antibody, V domains shown)
VH: QVQLVQSGAEVKKPGASVKVSCKASGYTFTSYIIHWVRQAPGQGLEWIGYINPYNDGTKYNEKFKGRVTMTSDTSTSTVYMELSSLRSEDTAVYYCARGGIRAFMNYWGQGTLVTVSS
VL: DIQMTQSPSSLSASVGDRVTITCKASQDVGTAVAWYQQKPGKAPKLLIYWASTRHTGVPSRFSGSGSGTDFTLTISSLQPEDFATYYCQHYISWTFGQGTKVEIK
notes: also called humanized clone 18CH16 antibody
For orientation: EC50 means the midpoint of the concentration-response curve. For B1, the concentration for a half-maximal effect (EC50) came out at 0.3 nM with human GPRC5D [1] and 0.51 nM in the experiment with human GPRC5D [2].

B2: Bispecific antibody 1 (bispecific antibody, human IgG1, kappa, L234A L235A)
heavy 1: not shown
heavy 2: QVQLVQSGAEVKKPGASVKVSCKASGYTFTSYIIHWVRQAPGQGLEWIGYINPYNDGTKYNEKFKGRVTMTSDTSTSTVYMELSSLRSEDTAVYYCARGGIRAFMNYWGQGTLVTVSSASTKGPSVFPLAPSSKSTSGGTAALGCLVKDYFPEPVTVSWNSGALTSGVHTFPAVLQSSGLYSLSSVVTVPSSSLGTQTYICNVNHKPSNTKVDKKVEPKSCDKTHTCPPCPAPEAAGGPSVFLFPPKPKDTLMISRTPEVTCVVVDVSHEDPEVKFNWYVDGVEVHNAKTKPREEQYNSTYRVVSVLTVLHQDWLNGKEYKCKVSNKALPAPIEKTISKAKGQPREPQVCTLPPSRDELTKNQVSLSCAVKGFYPSDIAVEWESNGQPENNYKTTPPVLDSDGSFFLVSKLTVDKSRWQQGNVFSCSVMHEALHNRYTQKSLSLSPGK
light: DIQMTQSPSSLSASVGDRVTITCKASQDVGTAVAWYQQKPGKAPKLLIYWASTRHTGVPSRFSGSGSGTDFTLTISSLQPEDFATYYCQHYISWTFGQGTKVEIKRTVAAPSVFIFPPSDEQLKSGTASVVCLLNNFYPREAKVQWKVDNALQSGNSQESVTEQDSKDSTYSLSSTLTLSKADYEKHKVYACEVTHQGLSSPVTKSFNRGEC
notes: 2+1 format: two GPRC5D Fabs and one CD3 scFv placed between a Fab and the Fc; also called anti-CD3-GPRC5D bispecific antibody 1; anti-GPRC5D/CD3 bispecific antibody
A word on the Kd: it is the free concentration of one partner at which half of the binding sites on the other are occupied at equilibrium, for simple one-to-one binding. What is called koff is the rate constant with which the complex falls apart. In general, kon refers to the second-order rate constant of association. As for B2, the “TDCC EC50(nM), NCI-H929 cell strain” value with human GPRC5D [3] stood at 0.001 nM. For the same molecule, the “TDCC EC50(nM), RPMI8226 cell strain” value with human GPRC5D [3] was found to be 0.01 nM. For the same molecule, the results for the EC50 (in experiment [4]; with human GPRC5D [5]; with human GPRC5D [6]) were 22.1 nM, 1.07 nM and 7.48 nM, respectively. Also, the Kd in [7] was determined as 20 nM; in [8] it was 16.8 nM. For the same molecule, the figures for the off-rate constant (koff) in experiment [7] and in [8] were 0.00226 s⁻¹ and 0.00292 s⁻¹, respectively. Also, the on-rate (kon) in [7] came to 113000 M⁻¹ s⁻¹; in [8], 174000 M⁻¹ s⁻¹.

B3: Bispecific antibody 2 (bispecific antibody)
heavy: not shown
light: B2 light
chain: DKTHTCPPCPAPEAAGGPSVFLFPPKPKDTLMISRTPEVTCVVVDVSHEDPEVKFNWYVDGVEVHNAKTKPREEQYNSTYRVVSVLTVLHQDWLNGKEYKCKVSNKALPAPIEKTISKAKGQPREPQVCTLPPSRDELTKNQVSLSCAVKGFYPSDIAVEWESNGQPENNYKTTPPVLDSDGSFFLVSKLTVDKSRWQQGNVFSCSVMHEALHNRYTQKSLSLSPGK
notes: 1+1 format: one GPRC5D Fab, one CD3 scFv between Fab and Fc, Fc-only hole chain; also called anti-CD3-GPRC5D bispecific antibody 2; anti-GPRC5D/CD3 bispecific antibody
Turning to B3, the “TDCC EC50(nM), NCI-H929 cell strain” value with human GPRC5D [3] came to 0.017 nM. Further, the “TDCC EC50(nM), RPMI8226 cell strain” value in the experiment with human GPRC5D [3] was 0.08 nM. Moreover, the EC50 in experiment [4] was determined as 12.9 nM; with human GPRC5D [5] it was 5.19 nM; with human GPRC5D [6], 22.9 nM. Further, the figures for the dissociation constant (Kd) in experiment [7] and in experiment [8] were 18.1 nM and 18.9 nM, respectively. Besides, the koff in experiment [7] turned out to be 0.00214 s⁻¹; in experiment [8] it was 0.00279 s⁻¹. For the same molecule, the on-rate constant (kon) in experiment [7] worked out at 118000 M⁻¹ s⁻¹; in [8] it was 147000 M⁻¹ s⁻¹.

B4: 18CH-16 (chimeric mouse hybridoma-derived anti-GPRC5D antibody) (antibody, V domains shown)
VH: EVQLQQSGPELVKPGASVKMSCKASGYTFTSYIIHWVKQKPGQGLEWIGYINPYNDGTKYNEKFKGKATLTSDRSSSTAYMEVSSLTSEDSAVYYCARGGIRAFMNYWGQGTSVTVSS
VL: DIVMTQSHKFMSTSVGDRVSITCKASQDVGTAVAWYQQKPGQSPKLLIYWASTRHTGVPDRFTGSGSGTDFTLSISNVQSEDLADYFCQHYISWTFGGGTNLEIK
notes: also called parent antibody
Turning to B4, in the experiment with human GPRC5A, the binding result is listed as “no binding (tested: 100 nM (initial concentration))”. The results for the half-maximal effective concentration (EC50) with human GPRC5D [9] and in the experiment with cynomolgus monkey GPRC5D were 3.89 nM and 4.39 nM, respectively.
